The text below walks through data of patent publication US20150337309A1.

The target of test [1] is integrin αvβ5 on breast cancer cells (MCF7, 4T1, MDA-MB-231). Kind of test: cell-based or functional assay.
The target of test [2] is integrin αvβ3 on breast cancer cells (MCF7, 4T1, MDA-MB-231). Description: cell-based or functional assay.

Consider “periostin (recombinant protein purchased from R&D system, as coated on wells or added to cells) (ligand)”, for which the cell adhesion to periostin-coated wells after treatment with anti-αvβ5 antibody in test [1] is 50 % of control. Besides, the cell adhesion to periostin-coated wells after treatment with anti-αvβ3 antibody in test [2] was 50 % of control.
